Measurements: publication doi:10.1101/2025.10.07.680968, “Widespread genomic heterogeneity at the type II NAD(P)H dehydrogenase locus predisposes Cryptosporidium to clofazimine resistance” (bioRxiv, 2025)
pIC50: −log10 of the molar value.

Tests used:
[1] = biological target: T1, CpNDH2 (CpNDH2-WT; MBP-CpNDH2) (Cryptosporidium parvum, UniProt F0X6E5); assay: inhibition of menadione reduction, NADH oxidation at […] nm; format: biochemical
T1 construct: gene cgd7_1900; full-length ORF (568 predicted residues), N-terminal MBP fusion from pMAL-c5X, E. coli BL21(DE3), amylose-resin purified

[2] = system: CC(C)=CCC/C(C)=C/CC/C(C)=C/CC/C(C)=C/CC1=C(C)C(=O)c2ccccc2C1=O; assay: purified protein; conditions: 400 μM NADH, pH 7.0, 25 °C, 0.1% Triton X-100, intact MBP fusion, Michaelis-Menten
[3] = system: CC(C)N=c1cc2n(-c3ccc(Cl)cc3)c3ccccc3nc-2cc1Nc1ccc(Cl)cc1; assay: purified protein; conditions: 400 μM NADH, pH 7.0, 25 °C, 0.1% Triton X-100, intact MBP fusion, positive cooperativity
CC1=CC(=O)c2ccccc2C1=O = assay: purified protein; conditions: 400 μM NADH, pH 7.0, 25 °C, 0.1% Triton X-100, Michaelis-Menten
[4] = system: COC1=C(OC)C(=O)C(C/C=C(\C)CCC=C(C)C)=C(C)C1=O; assay: purified protein; conditions: 400 μM NADH, pH 7.0, 25 °C, 0.1% Triton X-100, intact MBP fusion, positive cooperativity

T1 sequence (F0X6E5 entry or part of it): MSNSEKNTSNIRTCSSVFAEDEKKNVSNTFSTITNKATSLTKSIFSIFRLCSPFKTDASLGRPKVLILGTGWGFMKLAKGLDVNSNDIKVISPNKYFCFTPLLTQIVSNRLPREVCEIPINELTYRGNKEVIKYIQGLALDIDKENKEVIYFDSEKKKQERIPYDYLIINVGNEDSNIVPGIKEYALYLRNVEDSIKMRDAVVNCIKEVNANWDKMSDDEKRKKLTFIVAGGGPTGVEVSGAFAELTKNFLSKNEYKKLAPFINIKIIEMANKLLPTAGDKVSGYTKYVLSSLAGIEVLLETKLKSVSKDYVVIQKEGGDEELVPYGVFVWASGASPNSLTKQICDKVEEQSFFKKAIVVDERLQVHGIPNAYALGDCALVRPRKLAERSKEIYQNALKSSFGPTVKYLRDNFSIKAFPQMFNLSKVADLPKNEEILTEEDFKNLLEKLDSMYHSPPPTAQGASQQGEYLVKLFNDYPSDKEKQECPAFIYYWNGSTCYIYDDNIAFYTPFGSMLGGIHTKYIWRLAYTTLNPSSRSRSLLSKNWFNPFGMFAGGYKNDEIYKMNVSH

| Compound | pIC50 [1] | Km [2] [µM] | K0.5 [3] [µM] | Km (CC1=CC(=O)c2ccccc2C1=O) [µM] | K0.5 [4] [µM] |
| --- | --- | --- | --- | --- | --- |
| CC(C)/N=c1\cc2n(-c3ccc(Cl)cc3)c3ccccc3nc-2cc1Nc1ccc(Cl)cc1 [CFZ, clofazimine] | 5.53 |  |  |  |  |
| CpNDH2 (CpNDH2-WT; MBP-CpNDH2) (Cryptosporidium parvum) |  | 139.3 | 30.0 | 113.7 | 7.17 |
